Data on two molecules can be found in US20180142032A1 (Sanofi, published 2018).

Assay [1] has as its target T1, mLAMP1_hseq6-9-11_ΔGYQTI (mouse; human, UniProt P11438 25-369).
T1 construct: on cells; numbering read as for pXL6041; also called pXL6092; not shown: murine transmembrane domain and cytoplasmic tail with GYQTI replaced by 5 Ala
T1 chain: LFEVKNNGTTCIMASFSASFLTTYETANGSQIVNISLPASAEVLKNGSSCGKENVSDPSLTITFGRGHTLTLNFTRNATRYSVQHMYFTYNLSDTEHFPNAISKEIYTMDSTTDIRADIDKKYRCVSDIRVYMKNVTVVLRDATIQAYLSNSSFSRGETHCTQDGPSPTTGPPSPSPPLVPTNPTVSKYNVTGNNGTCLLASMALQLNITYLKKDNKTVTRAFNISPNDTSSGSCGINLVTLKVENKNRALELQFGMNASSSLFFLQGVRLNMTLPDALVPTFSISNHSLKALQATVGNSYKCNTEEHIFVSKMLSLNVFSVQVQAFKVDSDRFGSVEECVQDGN
The assay is described as follows: flow cytometry, transfected 293-F cells, experiment 2.

The target in assay [2] is T2, mLAMP1_hseq11_ΔGYQTI (mouse; human, UniProt P11438 25-369).
T2 construct: on cells; numbering read as for pXL6041; also called pXL6048; not shown: murine transmembrane domain and cytoplasmic tail with GYQTI replaced by 5 Ala
T2 chain: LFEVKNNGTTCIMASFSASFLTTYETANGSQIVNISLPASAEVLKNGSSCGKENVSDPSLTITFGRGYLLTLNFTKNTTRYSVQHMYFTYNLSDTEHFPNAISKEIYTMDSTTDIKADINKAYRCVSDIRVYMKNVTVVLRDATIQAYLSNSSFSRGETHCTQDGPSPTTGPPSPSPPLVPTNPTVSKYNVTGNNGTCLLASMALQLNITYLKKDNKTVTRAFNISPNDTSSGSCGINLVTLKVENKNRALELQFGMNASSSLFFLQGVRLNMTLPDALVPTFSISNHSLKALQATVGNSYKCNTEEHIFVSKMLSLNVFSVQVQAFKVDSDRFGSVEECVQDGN
The assay is described as above.

Assay [3] addresses T3, mLAMP1_hseq6_ΔGYQTI (mouse; human, UniProt P11438 25-369).
T3 construct: on cells; numbering read as for pXL6041; also called pXL6047; not shown: murine transmembrane domain and cytoplasmic tail with GYQTI replaced by 5 Ala
T3 chain: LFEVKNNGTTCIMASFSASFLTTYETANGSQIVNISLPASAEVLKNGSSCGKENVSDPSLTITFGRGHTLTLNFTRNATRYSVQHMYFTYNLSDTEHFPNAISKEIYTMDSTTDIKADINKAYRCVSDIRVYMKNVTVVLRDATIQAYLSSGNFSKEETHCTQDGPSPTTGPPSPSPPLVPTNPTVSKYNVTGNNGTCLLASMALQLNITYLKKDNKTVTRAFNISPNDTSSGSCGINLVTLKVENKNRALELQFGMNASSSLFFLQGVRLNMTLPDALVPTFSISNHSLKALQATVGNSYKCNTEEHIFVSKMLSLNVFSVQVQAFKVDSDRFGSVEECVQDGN
Described as above.

Assay [4] addresses T4, hLAMP1_ΔGYQTI (human, UniProt P11279 29-412).
T4 construct: also called pXL5626
T4 sequence: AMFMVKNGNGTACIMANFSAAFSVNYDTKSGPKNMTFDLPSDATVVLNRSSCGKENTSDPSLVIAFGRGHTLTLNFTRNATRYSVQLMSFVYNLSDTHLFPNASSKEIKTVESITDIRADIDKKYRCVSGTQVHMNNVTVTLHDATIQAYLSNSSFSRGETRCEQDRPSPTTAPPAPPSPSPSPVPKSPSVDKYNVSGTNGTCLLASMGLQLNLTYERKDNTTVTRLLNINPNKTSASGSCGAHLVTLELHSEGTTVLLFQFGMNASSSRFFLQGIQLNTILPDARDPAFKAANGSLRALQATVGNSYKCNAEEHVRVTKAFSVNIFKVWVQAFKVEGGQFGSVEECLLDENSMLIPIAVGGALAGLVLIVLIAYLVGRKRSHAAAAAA
The description is as above.

The target of assay [5] is T5, mLAMP1_ΔGYQTI (mouse, UniProt P11438 25-369).
T5 construct: on cells; also called pXL6009; murine LAMP1; not shown: murine transmembrane domain and cytoplasmic tail with GYQTI replaced by 5 Ala
T5 sequence: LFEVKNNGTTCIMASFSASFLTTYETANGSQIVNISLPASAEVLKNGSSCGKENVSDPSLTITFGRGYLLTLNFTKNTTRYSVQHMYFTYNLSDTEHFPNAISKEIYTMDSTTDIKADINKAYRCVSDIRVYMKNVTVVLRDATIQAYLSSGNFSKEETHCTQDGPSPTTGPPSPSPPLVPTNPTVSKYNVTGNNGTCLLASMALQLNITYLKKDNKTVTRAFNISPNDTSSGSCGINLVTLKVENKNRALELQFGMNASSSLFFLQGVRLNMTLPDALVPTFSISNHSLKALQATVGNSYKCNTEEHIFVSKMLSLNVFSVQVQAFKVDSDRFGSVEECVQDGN
The assay is described as above.

The target of assay [6] is T6, LAMP1_mseq11_ΔGYQTI (human; mouse, UniProt P11279 29-412).
T6 construct: on cells; also called pXL5995
T6 chain: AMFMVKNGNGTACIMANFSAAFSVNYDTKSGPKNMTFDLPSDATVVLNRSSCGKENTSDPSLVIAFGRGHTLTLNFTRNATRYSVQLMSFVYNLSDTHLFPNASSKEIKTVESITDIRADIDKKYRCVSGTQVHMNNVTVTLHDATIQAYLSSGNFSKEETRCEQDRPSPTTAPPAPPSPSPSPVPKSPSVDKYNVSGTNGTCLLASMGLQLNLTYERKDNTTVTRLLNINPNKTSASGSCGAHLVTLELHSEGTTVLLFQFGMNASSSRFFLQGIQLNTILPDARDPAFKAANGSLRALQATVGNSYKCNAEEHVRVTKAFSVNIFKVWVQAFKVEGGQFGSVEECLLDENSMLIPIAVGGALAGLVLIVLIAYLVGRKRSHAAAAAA
The assay is described as follows: flow cytometry, transfected 293-F cells. For orientation: Flow cytometry measures light scatter and fluorescence of single cells or particles in a stream.

B1: MAb1 (antibody, mouse IgG2a, kappa)
heavy: QVQLQQSGAELVKPGASVKMSCKASGYIFTNYNIHWVKKSPGQGLEWIGAIYPGNGDAPYSQKFKDKATLTADKSSSTTYMQLSRLTSEDSAVYYCVRANWDVAFAYWGQGTLVSVSAAKTTAPSVYPLAPVCGDTTGSSVTLGCLVKGYFPEPVTLTWNSGSLSSGVHTFPAVLQSDLYTLSSSVTVTSSTWPSQSITCNVAHPASSTKVDKKIEPRGPTIKPCPPCKCPAPNLLGGPSVFIFPPKIKDVLMISLSPIVTCVVVDVSEDDPDVQISWFVNNVEVHTAQTQTHREDYNSTLRVVSALPIQHQDWMSGKEFKCKVNNKDLPAPIERTISKPKGSVRAPQVYVLPPPEEEMTKKQVTLTCMVTDFMPEDIYVEWTNNGKTELNYKNTEPVLDSDGSYFMYSKLRVEKKNWVERNSYSCSVVHEGLHNHHTTKSFSRTPGK
light: DIQMTQSPPSLSASLGGKVTITCKASQDIDRYMAWYQDKPGKGPRLLIHDTSTLQPGIPSRFSGSGSGRDYSFSISNLEPEDIATYYCLQYDNLWTFGGGTKLEIKRADAAPTVSIFPPSSEQLTSGGASVVCFLNNFYPKDINVKWKIDGSERQNGVLNSWTDQDSKDSTYSMSSTLTLTKDEYERHNSYTCEATHKTSTSPIVKSFNRNEC
notes: murine monoclonal IgG, kappa, from hybridoma; also called murine MAb1
In the case of B1, the mean fluorescence was determined as 499 in assay [1]; 2 in assay [2]; 3 in assay [3]; 551 in assay [4]; 2 in assay [5].

B2: huMAb1_1 (antibody, human IgG1, kappa)
heavy: not shown
light: DIQMTQSPSSLSASVGDRVTITCKASQDIDRYMAWYQDKPGKAPRLLIHDTSTLQSGVPSRFSGSGSGRDYTLTISNLEPEDFATYYCLQYDNLWTFGGGTKVEIKRTVAAPSVFIFPPSDEQLKSGTASVVCLLNNFYPREAKVQWKVDNALQSGNSQESVTEQDSKDSTYSLSSTLTLSKADYEKHKVYACEVTHQGLSSPVTKSFNRGEC
notes: humanized, VH1-huIgG1 and VL1-huCk
As to B2, the binding result in assay [6] was “no binding”.
